Laboratory results reported in patent US20240132575A1 (MEMO THERAPEUTICS, published 2024).
Where two headings read alike, the source gives them in different places.

T1: BKV serotype II VP1 pentamer (VP1-II) (BK virus serotype II, UniProt P14996 31-300)
T1 construct: VP1 pentamer construct; also called BKV-VP1 serotype II
T1 chain: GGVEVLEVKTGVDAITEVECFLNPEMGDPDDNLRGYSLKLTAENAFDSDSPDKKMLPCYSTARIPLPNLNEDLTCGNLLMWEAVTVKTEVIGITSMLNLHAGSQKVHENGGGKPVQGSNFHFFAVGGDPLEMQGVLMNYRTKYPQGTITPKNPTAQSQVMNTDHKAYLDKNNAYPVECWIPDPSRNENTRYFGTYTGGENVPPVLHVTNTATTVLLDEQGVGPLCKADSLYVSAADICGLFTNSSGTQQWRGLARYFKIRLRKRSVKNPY

T2: BKV serotype IV VP1 pentamer (VP1-IV) (BK virus serotype IV, UniProt P14996 31-300)
T2 construct: also called BKV-VP1 serotype IV
T2 chain: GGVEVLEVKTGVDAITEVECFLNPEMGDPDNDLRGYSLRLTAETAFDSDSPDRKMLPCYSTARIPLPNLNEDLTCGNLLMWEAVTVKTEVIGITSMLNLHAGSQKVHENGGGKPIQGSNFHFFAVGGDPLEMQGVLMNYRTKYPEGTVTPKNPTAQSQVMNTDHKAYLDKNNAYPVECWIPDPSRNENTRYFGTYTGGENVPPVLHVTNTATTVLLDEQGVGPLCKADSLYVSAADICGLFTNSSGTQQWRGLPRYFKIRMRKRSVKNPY

T3: BKV serotype III VP1 pentamer (VP1-III) (BK virus serotype III, UniProt P14996 31-300)
T3 construct: also called BKV-VP1 serotype III
T3 sequence: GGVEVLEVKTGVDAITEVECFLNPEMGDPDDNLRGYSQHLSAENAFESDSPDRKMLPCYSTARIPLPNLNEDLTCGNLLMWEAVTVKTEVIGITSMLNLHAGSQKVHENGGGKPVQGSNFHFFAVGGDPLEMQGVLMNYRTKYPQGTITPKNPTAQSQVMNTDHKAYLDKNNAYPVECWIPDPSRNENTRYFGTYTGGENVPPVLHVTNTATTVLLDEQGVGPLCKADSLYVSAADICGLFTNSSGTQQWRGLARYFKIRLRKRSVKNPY

T4: BKV serotype Ib VP1 on BK pseudovirus (VP1-Ib) (BK virus serotype Ib, UniProt P03088 1-362)
T4 chain: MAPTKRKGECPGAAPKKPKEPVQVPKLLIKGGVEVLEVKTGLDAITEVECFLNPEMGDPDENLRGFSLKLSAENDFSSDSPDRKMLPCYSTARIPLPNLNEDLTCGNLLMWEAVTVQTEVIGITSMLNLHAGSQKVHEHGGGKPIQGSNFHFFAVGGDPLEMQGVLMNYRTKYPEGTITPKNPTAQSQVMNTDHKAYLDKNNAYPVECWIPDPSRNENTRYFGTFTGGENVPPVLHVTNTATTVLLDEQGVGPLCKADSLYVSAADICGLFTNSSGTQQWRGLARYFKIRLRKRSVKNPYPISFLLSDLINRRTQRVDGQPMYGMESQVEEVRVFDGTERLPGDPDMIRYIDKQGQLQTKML

T5: BKV serotype III VP1 on BK pseudovirus (VP1-III) (BK virus serotype III, UniProt P14996 1-362)
T5 sequence: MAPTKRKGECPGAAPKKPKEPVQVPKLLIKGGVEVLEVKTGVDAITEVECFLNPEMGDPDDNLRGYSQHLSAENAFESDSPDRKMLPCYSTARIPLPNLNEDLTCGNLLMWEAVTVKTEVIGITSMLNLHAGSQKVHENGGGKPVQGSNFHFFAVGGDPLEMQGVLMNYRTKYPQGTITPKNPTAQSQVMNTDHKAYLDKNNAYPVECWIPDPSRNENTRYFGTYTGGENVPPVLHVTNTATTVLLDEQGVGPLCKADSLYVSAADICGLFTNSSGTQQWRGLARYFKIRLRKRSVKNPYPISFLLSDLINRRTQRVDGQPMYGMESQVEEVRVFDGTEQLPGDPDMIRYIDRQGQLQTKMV

T6: BKV serotype IV VP1 on BK pseudovirus (VP1-IVc) (BK virus serotype IV, UniProt P14996 1-362)
T6 chain: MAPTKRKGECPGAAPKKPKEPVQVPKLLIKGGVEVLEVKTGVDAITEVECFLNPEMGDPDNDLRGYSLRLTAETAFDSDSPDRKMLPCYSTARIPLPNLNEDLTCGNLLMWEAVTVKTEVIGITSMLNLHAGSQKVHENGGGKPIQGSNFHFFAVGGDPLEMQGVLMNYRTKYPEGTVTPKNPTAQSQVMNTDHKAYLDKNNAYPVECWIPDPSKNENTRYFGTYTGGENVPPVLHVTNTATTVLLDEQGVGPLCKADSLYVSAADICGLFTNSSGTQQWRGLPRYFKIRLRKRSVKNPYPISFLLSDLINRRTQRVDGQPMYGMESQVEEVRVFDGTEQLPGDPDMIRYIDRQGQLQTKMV

T7: BKV serotype II VP1 on BK pseudovirus (VP1-II) (BK virus serotype II, UniProt P14996 1-362)
T7 chain: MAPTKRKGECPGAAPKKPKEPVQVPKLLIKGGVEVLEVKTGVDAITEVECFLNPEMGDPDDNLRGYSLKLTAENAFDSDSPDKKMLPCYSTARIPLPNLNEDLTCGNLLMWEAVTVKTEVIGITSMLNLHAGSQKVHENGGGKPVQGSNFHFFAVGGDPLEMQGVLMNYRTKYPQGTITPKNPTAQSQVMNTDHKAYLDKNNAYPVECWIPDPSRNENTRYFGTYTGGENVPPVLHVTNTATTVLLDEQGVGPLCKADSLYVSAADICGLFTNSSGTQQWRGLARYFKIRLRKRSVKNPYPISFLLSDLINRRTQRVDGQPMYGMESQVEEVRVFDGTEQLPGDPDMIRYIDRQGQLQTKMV

T8: BKV serotype Ia VP1 on BK pseudovirus (VP1-Ia) (BK virus serotype Ia, UniProt P03088 1-362)
T8 chain: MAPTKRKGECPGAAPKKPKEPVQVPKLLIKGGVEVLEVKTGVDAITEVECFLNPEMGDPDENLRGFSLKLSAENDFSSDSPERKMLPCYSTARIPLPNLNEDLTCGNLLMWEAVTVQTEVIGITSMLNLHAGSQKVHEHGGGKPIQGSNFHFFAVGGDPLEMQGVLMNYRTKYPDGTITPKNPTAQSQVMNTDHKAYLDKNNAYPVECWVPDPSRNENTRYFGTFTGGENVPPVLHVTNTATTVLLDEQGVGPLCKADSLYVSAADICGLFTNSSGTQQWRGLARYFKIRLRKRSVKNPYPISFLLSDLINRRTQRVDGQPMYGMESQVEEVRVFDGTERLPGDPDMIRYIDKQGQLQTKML

T9: BKV serotype I VP1 pentamer (VP1-I) (BK virus serotype I, UniProt P03088 31-300)
T9 construct: also called BKV-VP1 serotype I
T9 chain: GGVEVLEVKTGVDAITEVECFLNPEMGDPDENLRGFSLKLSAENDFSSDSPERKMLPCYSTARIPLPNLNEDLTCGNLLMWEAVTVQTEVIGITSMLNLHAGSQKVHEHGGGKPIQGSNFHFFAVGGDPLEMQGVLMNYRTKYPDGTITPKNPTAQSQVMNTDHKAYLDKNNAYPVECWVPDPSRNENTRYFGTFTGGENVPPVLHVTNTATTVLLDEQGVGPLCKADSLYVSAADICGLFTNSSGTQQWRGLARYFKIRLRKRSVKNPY


Assays:
[1] = target: T10, JCV VP1 pentamer (JC virus, UniProt P03089 23-292); assay: ELISA on coated JCV-VP1 pentamer
T10 construct: also called JC-VP1; VP1 of the JC virus

[2] = target: T1, BKV serotype II VP1 pentamer (VP1-II); assay: ELISA, VP1 pentamer coated, IgG titrated (EC50E)
Description: (§1) The binding of anti-BK virus antibodies to BKV-VP1 pentamers was analyzed by ELISA. […] Antibodies were serially diluted in PBS with 0.5% skim milk powder and added to the antigen-coated plates for 1.5 h. […] Plates were washed three times with PBS containing 0.05% Tween 20. The reaction was developed using 30 μl/well TMB liquid substrate (Sigma-Aldrich, #T0440) and stopped with 15 μl/well H₂SO₄. […] Data were fitted and apparent EC50 ELISA values (EC50E) were determined by three-parameter analysis in GraphPad Prism (GraphPad Software).

[3] = target: T2, BKV serotype IV VP1 pentamer (VP1-IV); assay: ELISA, VP1 pentamer coated, IgG titrated (EC50E)
Description: as §1

[4] = target: T3, BKV serotype III VP1 pentamer (VP1-III); assay: ELISA, VP1 pentamer coated, IgG titrated (EC50E)
Description: as §1

[5] = target: T4, BKV serotype Ib VP1 on BK pseudovirus …; assay: cell-based or functional assay
[6] = target: T5, BKV serotype III VP1 on BK pseudovirus …; assay: cell-based or functional assay
[7] = target: T6, BKV serotype IV VP1 on BK pseudovirus …; assay: cell-based or functional assay
[8] = target: T7, BKV serotype II VP1 on BK pseudovirus …; assay: cell-based or functional assay
[9] = target: T8, BKV serotype Ia VP1 on BK pseudovirus …; assay: cell-based or functional assay
[10] = target: T1, BKV serotype II VP1 pentamer (VP1-II); assay: ELISA, VP1 pentamer coated, IgG titrated (EC50E)
Description: as §1

[11] = target: T9, BKV serotype I VP1 pentamer (VP1-I); assay: ELISA, VP1 pentamer coated, IgG titrated (EC50E)
Description: as §1

[12] = target: T3, BKV serotype III VP1 pentamer (VP1-III); assay: ELISA, VP1 pentamer coated, IgG titrated (EC50E); remark: listed apart in the source
Description: as §1

[13] = target: T4, BKV serotype Ib VP1 on BK pseudovirus …; assay: cell-based or functional assay
[14] = target: T5, BKV serotype III VP1 on BK pseudovirus …; assay: cell-based or functional assay; remark: listed apart in the source
[15] = target: T6, BKV serotype IV VP1 on BK pseudovirus …; assay: cell-based or functional assay
[16] = target: T7, BKV serotype II VP1 on BK pseudovirus …; assay: cell-based or functional assay
[17] = target: T8, BKV serotype Ia VP1 on BK pseudovirus …; assay: cell-based or functional assay

T10 sequence (P03089 23-292 limits assumed): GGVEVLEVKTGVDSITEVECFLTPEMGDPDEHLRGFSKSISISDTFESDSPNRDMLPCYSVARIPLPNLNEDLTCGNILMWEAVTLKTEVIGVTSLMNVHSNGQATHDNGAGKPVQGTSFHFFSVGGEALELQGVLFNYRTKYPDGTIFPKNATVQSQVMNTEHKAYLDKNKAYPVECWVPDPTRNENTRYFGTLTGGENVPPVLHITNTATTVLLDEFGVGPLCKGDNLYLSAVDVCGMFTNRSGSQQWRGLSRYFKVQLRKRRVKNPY

Row | Binder | binding result [1] | EC50 [2] [pM] | EC50 [3] [pM] | EC50 [4] [pM] | IC50 (nM), neutralization of BK-Pseudovirus (NanoLuc luciferase, 293TT cells) [5] [nM] | IC50 (nM), neutralization of BK-Pseudovirus (NanoLuc luciferase, 293TT cells) [6] [nM] | IC50 (nM), neutralization of BK-Pseudovirus (NanoLuc luciferase, 293TT cells) [7] [nM] | IC50 (nM), neutralization of BK-Pseudovirus (NanoLuc luciferase, 293TT cells) [8] [nM] | IC50 (nM), neutralization of BK-Pseudovirus (NanoLuc luciferase, 293TT cells) [9] [nM] | EC50 [10] [pM] | EC50 [11] [pM] | EC50 [12] [pM] | IC50 (nM), neutralization of BK-Pseudovirus (NanoLuc luciferase, 293TT cells) [13] [nM] | IC50 (nM), neutralization of BK-Pseudovirus (NanoLuc luciferase, 293TT cells) [14] [nM] | IC50 (nM), neutralization of BK-Pseudovirus (NanoLuc luciferase, 293TT cells) [15] [nM] | IC50 (nM), neutralization of BK-Pseudovirus (NanoLuc luciferase, 293TT cells) [16] [nM] | IC50 (nM), neutralization of BK-Pseudovirus (NanoLuc luciferase, 293TT cells) [17] [nM]
1 | antibody 336F07 (antibody, human IgG1, kappa, V domains shown, also called 336FC07) VH: EEPLLESGGGLVQPGGSLRLSCAASGFTFRLYAMNWVRQAPGKGLEWVSLISGSGTATYYADSVTGRFSISRDNYKNRVYLQMDSLRADDTATYYCAKTYPTWGGVVIGAIDVWGQGTTVTVSS VL: DIQMTQSPSTLSASVGDRVTITCRASQSIQRWLAWHQQKPGRAPKVLIHDASTLESGVPSRFSGSGSGTEFTLTISSLQPDDFATYYCQQYNGHASTFGPGTKVDIKR | no binding | 30 | 30 | 20 | 0.103 | 0.019 | 0.018 | 0.02 | 0.094 | – | – | – | – | – | – | – | –
2 | antibody 319C07 (antibody, human IgG1, kappa, V domains shown, also called 319C7) VH: QVQLQQWGAGLLKPSETLSLTCAVYRGSFSAYYWTWFRQPPGKGLEWIGEINHRGYTNYNPSLRGRVSISVDTSKKQFSLKLRSVNAADTAVYYCATLRSTSGWHDYFDYWGQGTLVTVSS VL: EIVLTQSPGTLSLSPGERATLSCRASQSVSSSYLAWYQQTPGQAPRLLIYGASSRATGIPDRFSGSGSGTDFTLTISRLEPEDFVVYFCLQYGSSPLTFGPGTKVDIKR | no binding | – | – | – | – | – | – | – | – | 60 | 50 | 60 | 0.007 | 0.058 | 0.032 | 0.01 | 0.007
3 | comparative antibody P8D11 (WO 2017/046676) (antibody, human IgG1, lambda, V domains shown, also called BM2) VH: QVQLVESGGTLVQPGGSLRLSCAASGFTFNNYWMTWVRQAPGKGLEWVANIKKDGSEKYYVDSVRGRFTISRDNAKNSLFLQMNSLRPEDTAVYFCATVRSGRYFALDDWGQGTLVTVSS VL: QSVLTQPPSVSVAPGKTARITCGGDNIGSRPVHWYQQKPGQAPILVVYDDSNRPSGIPERFSGSNSGNTATLTISRVEAGDEADYYCQVWSSSTDHPFGGGTKVTVLG | binds | – | – | – | 0.392 | 0.176 | 2.91 | 0.565 | 0.391 | – | – | – | 0.392 | 0.176 | 2.91 | 0.565 | 0.391
